Measured values taken from article PMC6901930.

Molecular target: Major capsid protein (MCP), Trx fusion (Singapore grouper iridovirus (SGIV-Gx), UniProt Q5YFJ3 1-463)
Experiment: EMSA
Conditions: protein: recombinant; tags: Trx-His (pET-32a), 68 kDa

B1: Q5c (ssDNA)
DNA: TATTCGGGTTATTGCTCCTCTTTATTGTCACCTGGATGTATGATCGTGTAG
binding result: binds
